From US20110263454A1, “Methods of Identifying Functional Characteristics of Promoters, Transcription Modifying Proteins and Transcription Modulating Agents” (Salk Institute for Biological Studies, priority 2008, published 2011)

Key:
[1] = test system: hCAR promoter; assay: NHR-promoter luciferase screen, hCAR promoter; format: cell-based, human; details: for luciferase activity normalized to lacZ activity and to a control, hCAR: hCAR promoter-luciferase, CV-1 cells, NHR +/- ligand, control = 1.00; for Luc. act., normalized to lacZ / Normalized Luc. act., normalized to control: hCAR promoter, HR/ligand component
Method in brief: (§1)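 CV-1 cells were co-transfected with 50 ng NHR (homodimer or NHR/RXR heterodimer), 100 ng promoter-luciferase construct and 50 ng LacZ. Luciferase was normalized to LacZ and to a no-NHR/no-ligand control.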

[2] = test system: mLeptin promoter; assay: NHR-promoter luciferase screen, mLeptin promoter; format: cell-based, mouse; details: for Luc. act., normalized to lacZ / Normalized Luc. act., normalized to control: Table 7, mLeptin; for Results of assays of transcription factor (+/- ligand) with mLeptin: Table 6d, luciferase activity relative to control (control = 1.00)
Method in brief: as §1

[3] = test system: mNPY promoter; assay: NHR-promoter luciferase screen, mNPY promoter; format: cell-based, mouse; details: for Results of assays of transcription factor (+/- ligand) with mNPY: Table 6d, luciferase activity relative to control (control = 1.00); for Luc. act., normalized to lacZ / Normalized Luc. act., normalized to control: mNPY promoter, HR component with or without ligand; for Normalized Luc. act., normalized to control: relative to control
Method in brief: as §1

[4] = test system: mUCP3 promoter; assay: NHR-promoter luciferase screen, mUCP3 promoter; format: cell-based, mouse; details: for Normalized Luc. act., normalized to control / Luc. act., normalized to lacZ: mUCP3 promoter reporter; for Normalized Luc. act., normalized to control: HR without or with its ligand, relative to control; for Luc. act., normalized to lacZ: hormone receptor (HR) without or with its ligand; for mUCP3 promoter reporter activity: transcription factor +/- ligand, control = 1.00
Method in brief: as §1

[5] = test system: mAdiponectin promoter; assay: NHR-promoter luciferase screen, mAdiponectin promoter; format: cell-based, mouse; details: for Luc. act., normalized to lacZ / Normalized Luc. act., normalized to control: Adiponectin, HR component without or with its ligand; for mAdiponectin promoter reporter activity: transcription factor +/- ligand, control = 1.00
Method in brief: as §1

[6] = test system: mABCA1 promoter; assay: NHR-promoter luciferase screen, mABCA1 promoter; format: cell-based, mouse; details: for Luc. act., normalized to lacZ / Normalized Luc. act., normalized to control: ABCA1 promoter, hormone receptor with or without its ligand; for Normalized Luc. act., normalized to control: relative to control; for mABCA1 promoter reporter activity: transcription factor +/- ligand, control = 1.00
Method in brief: as §1

Molecule | luciferase activity normalized to lacZ activity and to a control, hCAR [1] | Luc. act., normalized to lacZ [1] | Normalized Luc. act., normalized to control [1] | Luc. act., normalized to lacZ [2] | Normalized Luc. act., normalized to control [2] | Results of assays of transcription factor (+/- ligand) with mLeptin [2] | Results of assays of transcription factor (+/- ligand) with mNPY [3] | Luc. act., normalized to lacZ [3] | Normalized Luc. act., normalized to control [3] | Normalized Luc. act., normalized to control [4] | Luc. act., normalized to lacZ [4] | mUCP3 promoter reporter activity [4] | Luc. act., normalized to lacZ [5] | Normalized Luc. act., normalized to control [5] | mAdiponectin promoter reporter activity [5] | Luc. act., normalized to lacZ [6] | Normalized Luc. act., normalized to control [6] | mABCA1 promoter reporter activity [6]
NR4a2: NR4a2 (NR4A2; NURR1), nuclear hormone receptor cDNA driver (protein, UniProt P43354 1-598, looked up) Nuclear receptor subfamily 4 …: MPCVQAQYGSSPQGASPASQSYSYHSSGEYSSDFLTPEFVKFSMDLTNTEITATTSLPSFSTFMDNYSTGYDVKPPCLYQMPLSGQQSSIKVEDIQMHNYQQHSHLPPQSEEMMPHSGSVYYKPSSPPTPTTPGFQVQHSPMWDDPGSLHNFHQNYVATTHMIEQRKTPVSRLSLFSFKQSPPGTPVSSCQMRFDGPLHVPMNPEPAGSHHVVDGQTFAVPNPIRKPASMGFPGLQIGHASQLLDTQVPSPPSRGSPSNEGLCAVCGDNAACQHYGVRTCEGCKGFFKRTVQKNAKYVCLANKNCPVDKRRRNRCQYCRFQKCLAVGMVKEVVRTDSLKGRRGRLPSKPKSPQEPSPPSPPVSLISALVRAHVDSNPAMTSLDYSRFQANPDYQMSGDDTQHIQQFYDLLTGSMEIIRGWAEKIPGFADLPKADQDLLFESAFLELFVLRLAYRSNPVEGKLIFCNGVVLHRLQCVRGFGEWIDSIVEFSSNLQNMNIDISAFSCIAALAMVTERHGLKEPKRVEELQNKIVNCLKDHVTFNNGGLNRPNYLSKLLGKLPELRTLCTQGLQRIFYLKLEDLVPPPAIIDKLFLDTLPF | 0.58 | 18.4 | 0.6 | 2.1 | 0.7 | 0.71 | 0.72 | 60.4 | 0.7 | 1.0 | 0.68 | 1.01 | 35.8 | 0.6 | 0.57 | 6.2 | 1.1 | 1.11
NR4a3: NR4a3 (NR4A3; NOR1), nuclear hormone receptor cDNA driver (protein, UniProt Q92570 1-626, looked up) Nuclear receptor subfamily 4 …: MPCVQAQYSPSPPGSSYAAQTYSSEYTTEIMNPDYTKLTMDLGSTEITATATTSLPSISTFVEGYSSNYELKPSCVYQMQRPLIKVEEGRAPSYHHHHHHHHHHHHHHQQQHQQPSIPPASSPEDEVLPSTSMYFKQSPPSTPTTPAFPPQAGALWDEALPSAPGCIAPGPLLDPPMKAVPTVAGARFPLFHFKPSPPHPPAPSPAGGHHLGYDPTAAAALSLPLGAAAAAGSQAAALESHPYGLPLAKRAAPLAFPPLGLTPSPTASSLLGESPSLPSPPSRSSSSGEGTCAVCGDNAACQHYGVRTCEGCKGFFKRTVQKNAKYVCLANKNCPVDKRRRNRCQYCRFQKCLSVGMVKEVVRTDSLKGRRGRLPSKPKSPLQQEPSQPSPPSPPICMMNALVRALTDSTPRDLDYSRYCPTDQAAAGTDAEHVQQFYNLLTASIDVSRSWAEKIPGFTDLPKEDQTLLIESAFLELFVLRLSIRSNTAEDKFVFCNGLVLHRLQCLRGFGEWLDSIKDFSLNLQSLNLDIQALACLSALSMITERHGLKEPKRVEELCNKITSSLKDHQSKGQALEPTESKVLGALVELRKICTLGLQRIFYLKLEDLVSPPSIIDKLFLDTLPF | 0.54 | 16.9 | 0.5 | 1.8 | 0.6 | 0.62 | 0.72 | 60.4 | 0.7 | 1.2 | 0.81 | 1.19 | 35.7 | 0.6 | 0.57 | 6.8 | 1.2 | 1.21
GCNF: Germ Cell Nuclear Factor (NR6A1, GCNF1), cDNA driver (protein, UniProt Q15406 1-480, looked up) Nuclear receptor subfamily 6 …: MERDEPPPSGGGGGGGSAGFLEPPAALPPPPRNGFCQDELAELDPGTISVSDDRAEQRTCLICGDRATGLHYGIISCEGCKGFFKRSICNKRVYRCSRDKNCVMSRKQRNRCQYCRLLKCLQMGMNRKAIREDGMPGGRNKSIGPVQISEEEIERIMSGQEFEEEANHWSNHGDSDHSSPGNRASESNQPSPGSTLSSSRSVELNGFMAFREQYMGMSVPPHYQYIPHLFSYSGHSPLLPQQARSLDPQSYSLIHQLLSAEDLEPLGTPMLIEDGYAVTQAELFALLCRLADELLFRQIAWIKKLPFFCELSIKDYTCLLSSTWQELILLSSLTVYSKQIFGELADVTAKYSPSDEELHRFSDEGMEVIERLIYLYHKFHQLKVSNEEYACMKAINFLNQDIRGLTSASQLEQLNKRYWYICQDFTEYKYTHQPNRFPDLMMCLPEIRYIAGKMVNVPLEQLPLLFKVVLHSCKTSVGKE | 0.93 | 29.2 | 0.9 | 1.5 | 0.5 | 0.50 | 0.64 | 53.5 | 0.6 | 1.0 | 0.66 | 0.98 | 63.1 | 1.0 | 1.00 | 7.6 | 1.4 | 1.36
DAX-1: DAX1 (NR0B1), cDNA driver (protein, UniProt P51843 1-470, looked up) Nuclear receptor subfamily 0 …: MAGENHQWQGSILYNMLMSAKQTRAAPEAPETRLVDQCWGCSCGDEPGVGREGLLGGRNVALLYRCCFCGKDHPRQGSILYSMLTSAKQTYAAPKAPEATLGPCWGCSCGSDPGVGRAGLPGGRPVALLYRCCFCGEDHPRQGSILYSLLTSSKQTHVAPAAPEARPGGAWWDRSYFAQRPGGKEALPGGRATALLYRCCFCGEDHPQQGSTLYCVPTSTNQAQAAPEERPRAPWWDTSSGALRPVALKSPQVVCEAASAGLLKTLRFVKYLPCFQVLPLDQQLVLVRNCWASLLMLELAQDRLQFETVEVSEPSMLQKILTTRRRETGGNEPLPVPTLQHHLAPPAEARKVPSASQVQAIKCFLSKCWSLNISTKEYAYLKGTVLFNPDVPGLQCVKYIQGLQWGTQQILSEHTRMTHQGPHDRFIELNSTLFLLRFINANVIAELFFRPIIGTVSMDDMMLEMLCTKI | 1.20 | 38.0 | 1.2 | 2.5 | 0.9 | 0.87 | 1.02 | 86.0 | 1.0 | 1.3 | 0.89 | 1.31 | 45.6 | 0.7 | 0.73 | 5.8 | 1.0 | 1.04
SHP: Small Heterodimer Partner (NR0B2), cDNA driver (protein, UniProt Q15466 1-257, looked up) Nuclear receptor subfamily 0 …: MSTSQPGACPCQGAASRPAILYALLSSSLKAVPRPRSRCLCRQHRPVQLCAPHRTCREALDVLAKTVAFLRNLPSFWQLPPQDQRRLLQGCWGPLFLLGLAQDAVTFEVAEAPVPSILKKILLEEPSSSGGSGQLPDRPQPSLAAVQWLQCCLESFWSLELSPKEYACLKGTILFNPDVPGLQAASHIGHLQQEAHWVLCEVLEPWCPAAQGRLTRVLLTASTLKSIPTSLLGDLFFRPIIGDVDIAGLLGDMLLLR | 0.99 | 31.3 | 1.0 | 2.7 | 0.9 | 0.91 | 0.81 | 68.3 | 0.8 | 1.1 | 0.77 | 1.15 | 46.1 | 0.7 | 0.73 | 6.8 | 1.2 | 1.21
